Results on 1 molecule are retold here after patent EP4585616A1, “ANTIBODY CAPABLE OF SPECIFICALLY BINDING TO ROR1, […] THEREOF, AND PREPARATION METHOD THEREFOR AND USE THEREOF” (Hefei Institutes of Physical Science, Chinese Academy of …, priority 2022, dated 2024).

A value given as a limit tells only on which side of the number the result lay.

One assay concerns COLO-678 cells. The assay can be described thus: In vitro anti-proliferative activity (CCK8). It is filed as cell-based. Conditions: Bowel cancer, read-out: Proliferation inhibition rate IC50±SD. As to the method: (§1) The cell lines used in this example, including MCF-7, MDA-MB-231, NCI-N87, NCI-H446, HT-29, HCC827, and HCC1187 cells, were purchased from Cobioer Biosciences, Nanjing, and Yuchi Biology, Shanghai, and cultured according to the corresponding instructions. The above cells in logarithmic growth phase were inoculated into 96-well cell culture plates at a density of 250 to 1500 cells per well (depending on the growth rate of different cells) at 150 µL/well, and cultured at 37°C, 5% CO2 for about 3 to 5 hours. Then, mAb001c-vcMMAE at different concentrations were added, each drug concentration in 2 to 4 replicates, as well as the corresponding vehicle control and blank control wells. After 5 to 6 days of action (depending on the cell growth rate, to ensure a sufficient number of cell divisions), the culture medium was removed and CCK8 reaction solution (purchased from MCE, cat# HY-K0301) was added at 100 µL/well. The reaction was carried out at 37°C until the expected color depth. The cell viability (OD450 nm) of each group was measured, and the cell survival rate was calculated according to the following formula: survival rate = (OD drug-OD blank)/(OD control-OD blank) × 100%. The above data were analyzed by GraphPad Prism 5 software, and the IC50 values of the above ROR1 antibody-drug conjugates for different cell lines were calculated.
(§2) The cell lines used in this example, including breast cancer cell lines MCF-7, SK-BR-3, MDA-MB-231, and HCC1187, colorectal cancer cell lines HT-29, SK-CO-1, and COLO-678, lung cancer cell lines HCC827, and H446, ovarian cancer cell line PA-1, gastric cancer cell line NCI-N87, were purchased from Cobioer Biosciences, Nanjing, and Yuchi Biology, Shanghai, and cultured according to the corresponding instructions. The CCK8 method was used to determine the in vitro killing activity of Hu001-2-MMAE, Hu001-3-MMAE, Hu005-44-MMAE, and Hu005-46-MMAE against various cancer cells, as well as UC961-MMAE as a positive reference. The implementation method was referred to Example 13.

In a further assay the test system is HCC1187 cells. The assay is described as follows: In vitro anti-proliferative activity (CCK8). In kind it is cell-based. The conditions noted are these: Breast cancer, read-out: Proliferation inhibition rate IC50±SD. As to the method: as §1, §2
The next assay concerns HCC827 cells. The assay is described as follows: In vitro anti-proliferative activity (CCK8). In kind it is cell-based. The conditions noted are these: Lung cancer, read-out: Proliferation inhibition rate IC50±SD. The protocol: as §1, §2
Another assay has as its system HT-29 cells. The assay is described as follows: In vitro anti-proliferative activity (CCK8). It is filed as cell-based. Conditions: Bowel cancer, read-out: Proliferation inhibition rate IC50±SD. The protocol:
as §1, §2

The next assay concerns MCF-7 cells. The assay is described as follows: In vitro anti-proliferative activity (CCK8). In kind it is cell-based. The conditions noted are these: Breast cancer, read-out: Proliferation inhibition rate IC50±SD. As to the method: as §1, §2
For another assay, the system named is MDA-MB-231 cells. The assay can be described thus: In vitro anti-proliferative activity (CCK8). It is filed as cell-based. The conditions noted are these: Breast cancer, read-out: Proliferation inhibition rate IC50±SD. As to the method: as §1, §2
For the next assay, the system named is NCI-H446 cells. The assay can be described thus: In vitro anti-proliferative activity (CCK8). It is filed as cell-based. Conditions: Lung cancer, read-out: Proliferation inhibition rate IC50±SD. The protocol: as §1, §2
Another assay deals with NCI-N87 cells. The assay can be described thus: In vitro anti-proliferative activity (CCK8). The conditions noted are these: Gastric cancer, read-out: Proliferation inhibition rate IC50±SD. It is filed as cell-based. The protocol: as §1, §2
The test system of a further assay is PA-1 cells. The assay is described as follows: In vitro anti-proliferative activity (CCK8). It is filed as cell-based. Conditions: Ovarian cancer, read-out: Proliferation inhibition rate IC50±SD. As to the method: as §1, §2
Another assay deals with SK-BR-3 cells. The assay can be described thus: In vitro anti-proliferative activity (CCK8). In kind it is cell-based. Conditions: Breast cancer, read-out: Proliferation inhibition rate IC50±SD. The protocol:
as §1, §2

The test system of a further assay is SK-CO-1 cells. The assay can be described thus: In vitro anti-proliferative activity (CCK8). Conditions: Bowel cancer, read-out: Proliferation inhibition rate IC50±SD. It is filed as cell-based. The protocol: as §1, §2
In another assay the test system is HCC1187 tumors. The assay is described as follows: In vivo antitumor activity, subcutaneous tumor model. The conditions noted are these: for Tumor inhibition rate (%): day 21. Set-up: species or system immunodeficient mice (NCG or Balb/c-nude). The protocol: (§3) 200 µL of cell matrix gel suspension containing 5 × 10^6 MDA-MB-231, 1 × 10^7 HCC1187, 1 × 10^7 PA-1, or 5 × 10^6 NCI-N87 was inoculated subcutaneously on the back of immunodeficient mice (NCG or Balb/c-nude). When the tumor volume grew to 100 to 300 mm3, the mice were randomly divided into groups (n=8 to 10) according to the tumor volume and nude mouse weight. The mice were dosed at doses of 5 mg/kg and 2.5 mg/kg once a week through the tail vein for a total of 3 weeks, as well as a group with PBS set as a negative control. The tumor volume and nude mouse weight were measured and recorded 2 to 3 times a week to plot the tumor growth curve. The formula for calculating tumor volume (V) is: V=1/2×a×b2, where a and b represent the length and width of the tumor, respectively.

Another assay has as its system NCI-N87 tumors. Described as above. Also noted: species or system immunodeficient mice (NCG or Balb/c-nude). Conditions: for Tumor inhibition rate (%): day 21. As to the method: as §3
A further assay relates to PA-1 tumors. The assay is described as above. Also noted: species or system immunodeficient mice (NCG or Balb/c-nude). Conditions: PA-1 model; for Tumor inhibition rate (%): day 28. The protocol: as §3
[1] abbreviates: 2.5mg/kg once a week x3, tail vein.
[2] abbreviates: 5mg/kg once a week x3, tail vein.

B1: UC961-MMAE: UC961 coupled with vcMMAE, prepared as a positive reference, average DAR about 3.95 (conjugate)
VH: QVQLQESGPGLVKPSQTLSLTCTVSGYAFTAYNIHWVRQAPGQGLEWMGSFDPYDGGSSYNQKFKDRLTISKDTSKNQVVLTMTNMDPVDTATYYCARGWYYFDYWGHGTLVTVSS
VL: DIVMTQTPLSLPVTPGEPASISCRASKSISKYLAWYQQKPGQAPRLLIYSGSTLQSGIPPRFSGSGYGTDFTLTINNIESEDAAYYFCQQHDESPYTFGEGTKVEIK
Take B1: the IC50 in the assay with COLO-678 cells was 19.1 ± 0.78 nM; with HCC1187 cells, 3 ± 1.5 nM; in the assay with HCC827 cells, 45.3 ± 25.7 nM; with HT-29 cells, 24.6 ± 1.04 nM; in the assay with MCF-7 cells, greater than 100 nM; with MDA-MB-231 cells, 13.5 ± 3.61 nM. The IC50 in the assay on NCI-H446 cells is 11.6 ± 2.52 nM; in the assay with NCI-N87 cells, 11.2 ± 2.47 nM; in the assay with PA-1 cells, 3.35 ± 0.12 nM; in the assay with SK-BR-3 cells, greater than 100 nM; in the assay on SK-CO-1 cells, 5.75 ± 2.46 nM. Moreover, the “Tumor volume ± SE (mm^3) on day 21th of administration” value amounted to 2576.56±461.28 mm^3 in the assay with HCC1187 tumors (setting [1]), 407.09±69.85 mm^3 with HCC1187 tumors (setting [2]), 2010.44±266.07 mm^3 in the assay on NCI-N87 tumors (setting [1]) and 1171.18±130.32 mm^3 in the assay with NCI-N87 tumors (setting [2]). Besides, the “Tumor inhibition rate (%)” value was determined as 15.18% in the assay with HCC1187 tumors (2.5mg/kg); 86.60% in the assay with HCC1187 tumors (5mg/kg); 19.87% with NCI-N87 tumors (2.5mg/kg); 53.32% in the assay on NCI-N87 tumors (5mg/kg); 32.09% in the assay with PA-1 tumors (2.5mg/kg); 97.06% in the assay with PA-1 tumors (5mg/kg). The “Tumor volume ± SE (mm^3) on day 28th of administration” value with PA-1 tumors (setting [1]) turned out to be 1032.13±123.29 mm^3; with PA-1 tumors (setting [2]), 44.67±3.04 mm^3.
